Where only a bound is given, the exact number is not on record here.
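Further: 20 min heating vs room temperature control held 20 min.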

A short description of the data set: soluble fraction after stress (log2 fold change); higher = more stays soluble; pooled small domains, quantitative proteomics. Particulars: stress: 75 degC.
In the case of “HMPLAQRFGLTVAQARVLDLLAEGRSNRQIGELLGLTEGTVKIHVSAIMKAMGVSNRAEAALMANRKR”, the “soluble fraction (log2)” value was -1.7.

With “HMPLDKDTTLDEIYRRFNMEHPADYKGHSLSMGDIVVFRQDGKQTAYYVDEGADYRQVPEFFVK”, the “soluble fraction (log2)” value is -0.0344.

Consider “HMPLDPFVVDALRDEIINTIKQHEPRVDLQKVQVQPIYTQNRVNISVQYKIVGLPIVEDITFVLQRP”, for which the “soluble fraction (log2)” value was 0.39.

Turning to “HMPLEKGVVILDVTPSSAKVAVDGTSVETTYPLRLSAGLHQLSAEADGYDSITEYFKVETEKTTVTLDLSK”, the “soluble fraction (log2)” value is 0.236.

As to “HMPLEQAELRLDLKQAILQMDRQTQELLLLRYVDGLSPGEAGKVLELSRFAVYRREKEALRKLRDYFSH”, the “soluble fraction (log2)” value was -1.93.

With “HMPLLSEWDAALEELWAKLGDVPMDPETERMDAPFLGFPAGTPREDIWHWFDERHSKGVAHLLYG”, the “soluble fraction (log2)” value is -2.46.

On to “HMPLQYRLTVQPTPTNARVRLVNSAFTYRPGVALPPGSYIVEVSSSGYGAKRQAVQIADGDVTVPVELEKI”, for which the “soluble fraction (log2)” value is -0.582.

For “HMPLYKYYTSYQIEPGDTLTSIAQKYTINSDVSVQDYIDEVKKNNNLVSDKINSGSYLVVSYYSNEY”, the “soluble fraction (log2)” value is -1.36.

For the sequence “HMPNIQLARNLKYLRLAYGLTQDDLGAFLNISRQAYSNYENLKRSPDLDSLIRLASLYHLSLDDLVSR”, the “soluble fraction (log2)” value is -3.31.

For the sequence “HMPNTLAGIERYLGSGMVKGIGPVYASRLVSAFGTAVFDVIEQTPERLREIDGIGEKRTRKITSGWADQ”, the “soluble fraction (log2)” value is -0.213.

Turning to “HMPNYIDAISALLTLKGVGDRKHASTMANILNLQYNSAKQKLDGKRGITLDEVKKVFQYFNEPF”, the “soluble fraction (log2)” value was -1.44.

In the case of “HMPPAPGHDLTEREREVLRLLVEGLSNQEISDRLVISQSTVKNHVSSVLSKLDAANRAEAVALALKNQL”, the “soluble fraction (log2)” value was 0.0595.

Turning to “HMPPELSDEVMEEAMSYLKNQYLNHGVKLEDYPALNKLFVDEAFRSEVIRKTQSNYKISYQSAMASLD”, the “soluble fraction (log2)” value stood at 0.355.

On to “HMPPENVSVRREQIAEDKKTVYNVWVTKGNKTVLYSKVVYAWGGVYFFRDLNTSISENMYKQADAGLVN”, for which the “soluble fraction (log2)” value was determined as 0.00373.

In the case of “HMPPGQIVNEALQRAGNSTPTGTAISAQDDIKLYTSALAELATQGDTSSASVAKLREALQTAQVAFYNAV”, the “soluble fraction (log2)” value is 0.201.

For the sequence “HMPPITIVPNDNGVPIIRSQTPEISTAVNVELKAAGINTHTIDGTSIRVPKAQAQVAQQIVSRVNTRFT”, the “soluble fraction (log2)” value was found to be 0.151.

On to “HMPPNHADLKSSGLKATLPRLKILEIFQNSQVRHLSAEDVYKLLLAENLDVGLATVYRVLTQFEQAGL”, for which the “soluble fraction (log2)” value is -0.522.

For the sequence “HMPPNRDDEHLQALRDYYAANRRIPSLQRVASLLGFSSRSAAVKLMGRLADEGFIERTADDDAWITGKRFF”, the “soluble fraction (log2)” value was -1.34.

Consider “HMPPNVLSEREQEVLQLAADGMSNKEMGSELYIAPTTVRDHMQSIMRKLQVNSRTAAAVAGLKLGLLD”, for which the “soluble fraction (log2)” value is -0.452.

Consider “HMPPPTLVESAYNHLKADIISSYLKPDEKINLKDLSQRYQVSETPIKQALNRLISEGLIISVPRKGMWVH”, for which the “soluble fraction (log2)” value stood at 0.0697.

As for “HMPPPVERAIRKLGHDLSLARRRRRISQDSMAQRMGASVSTVRRIEKGDPRIPIHFIARAMMILGDLKAL”, the “soluble fraction (log2)” value was determined as 0.0447.

On to “HMPQFDRQAFGQRLRLLRDYREMTQQQVANFLNVDRSTYSYYENGKTEPSITVLMRMAELFSVTLDSLLNM”, for which the “soluble fraction (log2)” value was -3.92.

Regarding “HMPQIDLYPFEVRIEQDNNAAEYAVRFLDVPNIIGSGASIDEAIVEARGNLKEYLDYLIDTNRDIPLPS”, the “soluble fraction (log2)” value was -0.339.

Consider “HMPQISQDDLMEAGLIVGKEAKQRRIKLGEILGIGYVNAKQLPKRLQLFQVAKSDFEQAVQQIDG”, for which the “soluble fraction (log2)” value is -0.218.

Take “HMPQKSDLTMEEYNKLGLAGGSGSRKLREQVGIRLSVGYGNSKQFYNRLHTFGISLDELKTAVEEVKNG”: the “soluble fraction (log2)” value amounted to 0.226.

“HMPQNVSVPDVTNMTQAEAESKLKEKNLAVGNIIPELSTTVEKDKVTRTNPESGSNVRKNSKVDIYVSQG”: the “soluble fraction (log2)” value was determined as 0.154.

Take “HMPQPDVIEVRQGIVTGMRPDRRTGWLRDEEDAAGEPKSFSIDVITPKGRTPGKGAVVTYTLTNGKITEVK”: the “soluble fraction (log2)” value is -0.047.

With “HMPRELKVRDVSHQHAGHAGWREGGETHFEVDMKADVFAGTSRVAAHRMVNKVLANELASRVHALQLNLS”, the “soluble fraction (log2)” value was found to be 0.0164.

Take “HMPRENLAYTLIMDGIVQHKNLPRASVTEAWLKQELQKAGINDFRQVLIAGIDSKGQLYFQPKQK”: the “soluble fraction (log2)” value is at least 1.04.

Consider “HMPRPLVAPMPGLIVRVTAVVGDSVDAGQGLVVMEAMKMENELRTTTAGVVKTVHVQPGVAVEKGALLIEF”, for which the “soluble fraction (log2)” value was -0.827.

For the sequence “HMPRTEILMVDEEMEGERLDAFVAEQLDELSRSLVKTLIENGEIRVDGKQQKPSYRLKAGEEIIVEIPA”, the “soluble fraction (log2)” value turned out to be 0.439.

“HMPSDTNLIGKTGIAYTTLRPGGTALIDDRKVDVVADSEYIEKDKKIKVIRVEGIKVVVTAVK”: the “soluble fraction (log2)” value was 0.164.

On to “HMPSGRIRWFDAKKGYGFIAGDDGKDVFLPQTALPQGVRNPRKGAKVEYSVIEGNRGQVAMGVTMV”, for which the “soluble fraction (log2)” value was -0.331.

Regarding “HMPSHALFWTLLKEVPGYDPHYKDVIKEGIVHEHSGGRTTSLSEMYTKYPREYSLMIEAMKG”, the “soluble fraction (log2)” value was -0.475.

“HMPSKTFYNLSQEKQQKIIDASEKEFSNNLYQDVSLNQIIKNSNISRGSFYMYFTDKEDLYFYLLNEY”: the “soluble fraction (log2)” value is -0.731.

Turning to “HMPSLGADIRALRKSRKMTLVALADALGRSVGWLSQVERDKSHATIADLGRMAEVLDVSISSFL”, the “soluble fraction (log2)” value was -0.273.

Take “HMPSLSAILHDARVAAGLSMRQASAASGLSIGFISMLEQGKVQDISLQRLGRLVTAYDLEPLDVIEAAG”: the “soluble fraction (log2)” value is -1.83.

As for “HMPSSAYGPYKNVFLSNSELTKLKNELPTSWEHYINRLSEYMRSTGRQYQSHAATILRWAATDRNS”, the “soluble fraction (log2)” value was -0.488.

In the case of “HMPSSFLVKVTADALNIRSGPGVANRITGTIKDKGTYTIVDTKDDWGKLKSGVGWIHLGYTKRLD”, the “soluble fraction (log2)” value is -0.857.

On to “HMPSSQQVMRRLATVGPDKTLEELQRQHDAHLRKYGEFNDFRGERQQMRQEMERIKEAKQGTGPYAHLMG”, for which the “soluble fraction (log2)” value was 0.025.

Consider “HMPTAGYMTVTPDRVKEGQQFLATLRPPYVLKADGLAAGKGVLILPELEEAQRELEEMLGGFLGELSVNR”, for which the “soluble fraction (log2)” value is 0.136.

With “HMPTERLSMRRIRELLRLRFEVGLSTRLIATALGISKGAVGDYLQRAQVAGLGWPLPENLNDAALERRLFP”, the “soluble fraction (log2)” value was -1.38.

“HMPTGRVVIPLNRLTASDVARILDEAYGRDHNFEVVKPSRLAKGIIVIGPKSEIDGIKELLAH”: the “soluble fraction (log2)” value was -0.829.

For “HMPTLLGYKHILSAWNPDTNTVFRTSYGYDGEYGSREEAMQALIKMIQEGGKATPRGIEESEVPIY”, the “soluble fraction (log2)” value is -0.238.

As for “HMPTLSKVGSQGEEVRQIQTKLKNWGYLNDRVDGIYGPKTRDAVIWFQKKNGLVADGIAGPATLKAMGIFT”, the “soluble fraction (log2)” value was -0.142.

Turning to “HMPTMVAQINEIVQAKLPGSGLKDYTIRLVESQRDGVVVWVNGTRYLGVDEVAEPQVQALLKEAVAEWERS”, the “soluble fraction (log2)” value is -0.462.

For “HMPTQGELAILRVLWEQGPSTVRAVWEKLNSQSGTGYTTALKLMQIMAQKGLVSRDESQKTHVYRA”, the “soluble fraction (log2)” value is -1.54.

Consider “HMPTTRPEAEAHYETHQRYHDLQIDVEGREAFKVATGSLTLVQEFDEKDDYDLSIPTPRSPAILLTT”, for which the “soluble fraction (log2)” value is -0.0329.

For “HMPVFYVTGNRVNFRAGPSTGDRVIGSLSQGAAVEVLGPTDDAWINIRDSDGRVGYMSAQFLSQ”, the “soluble fraction (log2)” value was determined as 0.355.

Take “HMPVLDETVPAALDGERIDRVVALLADVSRNRAGIAIAAGSVRLDGAVVTQRSRKVRADEELVVDGLER”: the “soluble fraction (log2)” value came out at 0.107.

As for “HMPVNEEFKRLIDKIKYEFSINQAQISERLGVKSTYLSDMINGRVPYNESMQKKIHEVFHIG”, the “soluble fraction (log2)” value was -0.424.

Regarding “HMPVNGEFIERIKVMVLENKAKGKKERLTKTRMHQLLQEEGYKGSYSAFTHQVRIIEEELGVNQKEAH”, the “soluble fraction (log2)” value was -0.48.

On to “HMPVSRMRARHEALARGVMGIHAGGFSAVYGYRKVWHGLIGKGWDPGEVGRDQVMNIMRGLGMQGVRR”, for which the “soluble fraction (log2)” value is -0.132.

For the sequence “HMPVSVAEQKQILAEALQERGHATFRELIENADNRMIVVGRFLALLELYRDGTVRFEQERALGELTIHWEE”, the “soluble fraction (log2)” value is -2.07.

Take “HMPYIVNHIHLKSEDPKITADWFVKAFNFEIVSDVVRHFGDRFIVTKAEGGMTINISGVRDGEEL”: the “soluble fraction (log2)” value was 0.141.

“HMPYNNLADAPASWKKLDDTPLTLGQVNWIAKIYDALVAKGMEKGAAAGTAISRFKKSFKVADGKWVQV”: the “soluble fraction (log2)” value is -0.478.

“HMPYNRRYLISNADGALYTVEENGLVKLEETNLTAELFETRGMQDIPDGKLLITLHDPTILYWHDSENLFP”: the “soluble fraction (log2)” value was -1.5.

As for “HMPYSPTPGSAPARLIAHLQEHGDSVNRTAIAELLQVDRKNVHNYLARAVTHGLLLRHGGGAYSLP”, the “soluble fraction (log2)” value came out at 0.0908.

In the case of “HMQADEENPKYPVITDGVIQLEVLESIDKTEEWLVERLAKDGYNNVSEIFIAEYENGNLSIVT”, the “soluble fraction (log2)” value came to 0.0913.

As for “HMQADPYTVLGVLRDVTDGELKREYRKLVREHHPDALIAQGVPQEFVDIANNKLAVINAAYERIAKQRGL”, the “soluble fraction (log2)” value was -0.154.

“HMQAGILTDTAAKNARIKKIDTERLEAELDQKRIVIVTGFQGVDRNQNITTLGRGGSDTSAVALAAAVSIT”: the “soluble fraction (log2)” value was determined as 0.171.

For the sequence “HMQAKDVEIPNFVGKTLAEANADNKDNFNFVVESKYDASKELGVILEQEPAADSKLVKSGSQITLKV”, the “soluble fraction (log2)” value was at least 1.04.

As for “HMQALDNNDALEEIIKKVITENPSQVTEFRNGKDSLMNFLVGKVMAASGGKANPKTLPETIEKIIK”, the “soluble fraction (log2)” value is 0.277.

For “HMQAMDYEGFKKEILKMSDIDLSLYKEKQMKRRIDSLIRKNGYEHYEDYVQALKQDSGLYNEFINYLTI”, the “soluble fraction (log2)” value came out at 0.571.

In the case of “HMQANLPFSELLADVDRGLISDVTIKGDQVSGHYTDGRTFNTFIPPEADLVRRLTEKNVRIAAVPD”, the “soluble fraction (log2)” value is -0.113.

For “HMQAPAFDYSKVQEGVTVNHKIFGDGTVSWIDKARKYIRVQFSVGEKMFTMETAFVQGFLSL”, the “soluble fraction (log2)” value was -1.19.

“HMQAPVDPIVLGKMGSSYGIRGWLRVFSSTEDAESIFDYQPWFIQKAGQWQQVQLESWKHHNQDMIIKLN”: the “soluble fraction (log2)” value was 0.2.

On to “HMQARLPFSFAKRHGVILLAATGEGQSDVIYKSGFDIGALAEVRRFVAGEIALKEVDGPSFDRQLTLTYQN”, for which the “soluble fraction (log2)” value was -2.

As to “HMQARSQQTIQTLFKAAAQILDKEGEAGLSTNKVAAAAGFSIGTLYQYFPSKEVLIQAMAAR”, the “soluble fraction (log2)” value was determined as 0.219.
